The text below walks through data of article PMC5963890.

Values joined by “and” are separate entries in the source; they are usually repeats but may differ in a detail not shown here. Identical values can stand only once.

Assay [1] has as its target G20c portal protein L49C conjugated with maleimide-porphyrin (bacteriophage G20c). As to the kind of experiment: SEC. (In general: SEC sorts molecules by how far they enter the pores of the column.)
Assay [2] addresses G20c portal protein L49C single mutant (bacteriophage G20c). Put plainly: negative-stain transmission electron microscopy.
The target of assay [3] is G20c portal protein L49C/V325G/I328G conjugated with maleimide-porphyrin (bacteriophage G20c). Put plainly: SEC.
Assay [4] concerns the target G20c portal protein L49C/V325G/I328G triple mutant (bacteriophage G20c). As to the kind of experiment: negative-stain transmission electron microscopy.
Assay [5] deals with G20c portal protein V325G mutant (bacteriophage G20c). As to the kind of experiment: crystal structure.
Assay [6] addresses G20c portal protein V325G/I328G double mutant (bacteriophage G20c). Put plainly: X-ray diffraction, self-rotation function.

In the case of “G20c portal protein L49C conjugated with maleimide-porphyrin (natural protein)”, in assay [1], the stoichiometry N is 12 and 24.

Consider “G20c portal protein L49C single mutant (natural protein)”, for which, in assay [2], the stoichiometry N came to 12. Regarding “G20c portal protein L49C/V325G/I328G conjugated with maleimide-porphyrin (natural protein)”, the stoichiometry N in assay [3] is 12 and 24. “G20c portal protein L49C/V325G/I328G triple mutant (natural protein)”: in assay [4], the stoichiometry N was 12. Turning to “G20c portal protein V325G mutant (natural protein)”, the stoichiometry N in assay [5] was determined as 12. In the case of “G20c portal protein V325G/I328G double mutant (natural protein)”, the stoichiometry N in assay [6] came out at 12.

Broadly, the stoichiometry N is the number of molecules, sites or subunits per partner or assembly.
